Reference: article PMC5595344, “Interaction of the cyclic-di-GMP binding protein FimX and the Type 4 pilus assembly ATPase promotes pilus assembly” (PLoS Pathogens, 2017)

Legend:
[1] = molecular target: PilB (Pseudomonas aeruginosa, UniProt P22608); settings: 1 mM ATP; minimal activity
[2] = molecular target: T1, FimX (Pseudomonas aeruginosa, UniProt Q9HUK6); assay: surface plasmon resonance (BIAcore T100), FimX immobilized on CM5 chip; format: binding
T1 construct: dimer in solution (ca. 150 kDa by SEC)

[3] = molecular target: the molecule itself; assay: SEC; Superdex 200 10/300; 50 μM hexameric PilB and 50 μM dimeric FimX or FimX(AAA), 30 min at RT, 25 mM Tris pH 8, 150 mM NaCl, 5 mM MgCl2, 500 μM c-di-GMP; each protein also run alone; fractions on SDS-PAGE
[4] = molecular target: the molecule itself; assay: SEC; preparative SEC after affinity purification; Superdex 200 Increase, 25 mM Tris pH 8.0, 250 mM NaCl, 5 mM MgCl2, 5 mM β-mercaptoethanol

Nc1ncnc2c1ncn2[C@@H]1O[C@H](COP(=O)(O)OP(=O)(O)OP(=O)(O)O)[C@@H](O)[C@H]1O [ATP]
ATPase activity [1]: PilB shows minimal ATPase activity in vitro that is not altered by addition of FimX

Nc1nc2c(ncn2[C@@H]2O[C@@H]3CO[P@](=O)(O)O[C@H]4[C@@H](O)[C@H](n5cnc6c(=O)[nH]c(N)nc65)O[C@@H]4CO[P@](=O)(O)O[C@H]3[C@H]2O)c(=O)[nH]1 [c-di-GMP]
Kd [2]: 88 ± 5.6 nM

B1: 6X-His tagged FimX (natural protein)
chain: MAIEKKTIRLLILEDSQNEAERLVSLFRNAGHATRVHRLTSPEDLAETLQQSWDLLIAAPTSECLEPGEALATLRRQSRDIPFIQLVADNSSDAITDALMLGAQDALPQGEDERLVLVANRELAGLAERRARRAAELALREAEKRCQLLLDSSVDAITYVHDGMHIYANRSYMALFGYEDAEELEGLPVIDLIASCDQGAFKDFLKGYQNDQRQTELVCTGVKLDGQEFKARISLSAATYDGEPCIQVVIRGEVDNAELEEKLREVSSQDPVTGLYNRSHFLDLMDAAVQQAVTARKPSTLAYIHLNGYPSLQADHGLSGIDLLLGQLAGLMREQFGEEADLARFGDSIFAALFKGKTPEQAQAALQRLLKKVENHLFELNGRSAQATLSIGVAGLDEKTAKAQDVMNRAHRCADDAARKGGSQIKQYNPAEELAAAAQRGDVIAILQQALETNSFRLLFQPVISLRGDSHENYEVLLRLLNPQGQEVPPAEFLHAAKEAGLAEKIDRWVILNSIKLLAEHRAKGHQTKLFVHLSSASLQDPGLLPWLGVALKAARLPPESLVFQISEADATSYLKQAKQLTQGLATLHCQAAISQFGCSLNPFNALKHLTVQFIKIDGSFVQDLNQVENQEILKGLIAELHEQQKLSIVPFVESASVLATLWQAGATYIQGYYLQGPSQAMDYDFSSGDE
notes: also called dimeric FimX; purified FimX; source: purified as 6X-His tagged protein as described previously [17]
stoichiometry N [3]: 2

B2: 10XHis-MBP tagged recombinant PilT (natural protein)
chain: MDITELLAFSAKQGASDLHLSAGLPPMIRVDGDVRRINLPPLEHKQVHALIYDIMNDKQRKDFEEFLETDFSFEVPGVARFRVNAFNQNRGAGAVFRTIPSKVLTMEELGMGEVFKRVSDVPRGLVLVTGPTGSGKSTTLAAMLDYLNNTKYHHILTIEDPIEFVHESKKCLVNQREVHRDTLGFSEALRSALREDPDIILVGEMRDLETIRLALTAAETGHLVFGTLHTTSAAKTIDRVVDVFPAEEKAMVRSMLSESLQSVISQTLIKKIGGGRVAAHEIMIGTPAIRNLIREDKVAQMYSAIQTGGSLGMQTLDMCLKGLVAKGLISRENAREKAKIPENF
notes: also called hexameric PilT; source: E. coli BL21(DE3), purified (Ni-NTA, amylose resin, SEC)
stoichiometry N [4]: 6

B3: 10XHis-MBP tagged recombinant PilB (natural protein)
chain: MNDSIQLSGLSRQLVQANLLDEKTAVQAQAQAQRNKLSLVTHLVQSKLVSGLALAELSAEQFGIAYCDLNSLDKESFPRDAISEKLVRQHRVIPLWRRGNKLFVGISDPANHQAINDVQFSTGLTTEAILVEDDKLGLAIDKLFESATDGLAGLDDVDLEGLDIGSADKSTQEDASAEADDAPVVRFVNKMLLDAIKGGSSDLHFEPYEKIYRVRFRTDGMLHEVAKPPIQLASRISARLKVMAGLDISERRKPQDGRIKMRVSKTKSIDFRVNTLPTLWGEKIVMRILDSSSAQMGIDALGYEEDQKELYLAALKQPQGMILVTGPTGSGKTVSLYTGLNILNTTDINISTAEDPVEINLEGINQVNVNPRQGMDFSQALRAFLRQDPDVIMVGEIRDLETAEIAIKAAQTGHMVMSTLHTNSAAETLTRLLNMGVPAFNLATSVNLIIAQRLARKLCSHCKKEHEVPRETLLHEGFPEDKIGTFKLYSPVGCDHCKNGYKGRVGIYEVVKNTPALQRIIMEEGNSIEIAEQARKEGFNDLRTSGLLKAMQGITSLEEVNRVTKD
notes: also called hexameric PilB; purified PilB; source: E. coli BL21(DE3), purified (Ni-NTA, amylose resin, SEC)
stoichiometry N [4]: 6
